As a reminder, the EC50 is the concentration that produces a half-maximal response. High values mean a need for much substance, low ones an effect from little substance.

1 substance from patent publication US20100196398A1 can be followed below.

The assay addresses human CD105 (human) (UniProt P17813). Put plainly: FACS titration of FITC-labeled SN6 on HUVEC cells.

Sequence of human CD105 (human) (P17813 26-658): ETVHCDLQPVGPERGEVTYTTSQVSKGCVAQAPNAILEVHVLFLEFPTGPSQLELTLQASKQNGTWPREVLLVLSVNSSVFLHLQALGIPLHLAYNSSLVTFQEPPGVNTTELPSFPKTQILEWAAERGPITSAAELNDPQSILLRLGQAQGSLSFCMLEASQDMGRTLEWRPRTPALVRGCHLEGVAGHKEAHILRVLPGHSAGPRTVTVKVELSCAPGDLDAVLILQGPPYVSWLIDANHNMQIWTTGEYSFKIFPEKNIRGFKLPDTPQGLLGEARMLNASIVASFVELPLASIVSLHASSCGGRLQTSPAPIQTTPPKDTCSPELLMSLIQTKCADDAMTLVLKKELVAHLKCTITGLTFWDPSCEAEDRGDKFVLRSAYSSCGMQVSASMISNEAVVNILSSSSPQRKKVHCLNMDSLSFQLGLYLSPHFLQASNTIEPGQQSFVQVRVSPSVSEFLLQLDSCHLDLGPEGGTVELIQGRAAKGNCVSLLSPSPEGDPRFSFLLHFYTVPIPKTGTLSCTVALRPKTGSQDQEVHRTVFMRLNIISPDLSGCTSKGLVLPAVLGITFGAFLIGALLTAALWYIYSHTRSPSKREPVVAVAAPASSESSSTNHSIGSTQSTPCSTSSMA

SN6 antibody (Abcam) registered an EC50 of 2 µg/mL.
